{
  "source": "patent US20170362325A1",
  "molecular_target": "CD18 (Integrin beta-2) (human) (UniProt P05107)",
  "sequence (P05107 23-769)": "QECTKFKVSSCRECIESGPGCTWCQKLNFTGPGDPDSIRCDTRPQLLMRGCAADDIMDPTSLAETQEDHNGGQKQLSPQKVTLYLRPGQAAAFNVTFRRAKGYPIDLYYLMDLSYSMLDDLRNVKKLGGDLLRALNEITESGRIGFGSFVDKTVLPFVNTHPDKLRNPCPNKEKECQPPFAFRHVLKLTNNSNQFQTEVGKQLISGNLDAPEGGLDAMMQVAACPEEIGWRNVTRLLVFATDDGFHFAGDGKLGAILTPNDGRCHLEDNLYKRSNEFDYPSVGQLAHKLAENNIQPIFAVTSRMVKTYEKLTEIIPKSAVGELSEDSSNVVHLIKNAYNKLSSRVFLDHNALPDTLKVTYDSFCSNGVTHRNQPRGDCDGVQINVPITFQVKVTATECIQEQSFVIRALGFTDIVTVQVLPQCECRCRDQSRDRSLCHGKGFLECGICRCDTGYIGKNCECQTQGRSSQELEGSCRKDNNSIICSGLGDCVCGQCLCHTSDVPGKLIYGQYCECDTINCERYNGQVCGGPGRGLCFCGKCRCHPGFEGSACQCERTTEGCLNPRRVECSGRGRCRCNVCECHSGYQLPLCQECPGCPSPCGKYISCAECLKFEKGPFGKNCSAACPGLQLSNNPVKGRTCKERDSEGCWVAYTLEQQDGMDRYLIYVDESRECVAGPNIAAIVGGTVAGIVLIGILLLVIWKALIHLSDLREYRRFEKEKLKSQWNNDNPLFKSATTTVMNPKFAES",
  "experiment": "cell-based or functional assay",
  "data": [
    {"substance": "anti-CD18 antibody molecule TS 1/18", "values": [
      {"measurement": "3H-thymidine uptake (cpm), PBMC + HUVEC + PSMA×CD3, off target activation (FIG. 3A; control about 30000 cpm)", "result": "< 10000", "unit": "cpm"}
    ]}
  ]
}
